Source: paper PMC2818592

Assays:
[1] = biological target: T1, PDGF-BB (platelet-derived growth factor B-chain homodimer) (UniProt P01127 82-190); experiment: microbead sandwich assay without RCA
[2] = biological target: T1, PDGF-BB (platelet-derived growth factor …); experiment: optical diffraction sandwich assay with RCA and microbeads

T1 sequence (P01127 82-190): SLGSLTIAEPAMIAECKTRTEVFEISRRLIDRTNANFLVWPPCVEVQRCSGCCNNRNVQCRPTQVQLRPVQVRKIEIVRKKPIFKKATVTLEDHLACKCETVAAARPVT

TACTCAGGGCACTGCAAGCAATTGTGGTCCCAATGGGCTGAGTATTTTTT (structured_DNA) [capture aptamer (anti-PDGF-BB)]: binds [1].

B1: aptamer-primer complex (anti-PDGF-BB aptamer with 3' RCA primer) (structured_DNA)
DNA: TACTCAGGGCACTGCAAGCAATTGTGGTCCCAATGGGCTGAGTATTTTTTTTGTCCGTGCTAGAAGGAAACAGTTAC
B1: binds [2].
